± gives the uncertainty stated by the source.
Experiment: protein stability index of a GFP-peptide fusion (yeast GPS) (PSI 1-4); higher = more stable; sorted into four equal gates, so the index is relative within each strain
Conditions: doa10∆
Method in brief: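 Peptides tiling yeast proteins in 17-residue segments were fused downstream of GFP, with Cherry expressed from the same plasmid. As a pooled library in yeast, mid-log cultures grown in leucine-free medium were sorted into four equal gates by GFP/Cherry fluorescence ratio. Gate plasmids were PCR-amplified and Illumina-sequenced, and barcodes linked reads to strains. Each peptide received a protein stability index equal to the sum of each gate's read frequency times its gate number.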

Row | Sequence | protein stability index
1 | EEDVYLDPLARVSKDKK [FAS2] | 3.5 ± 0.11
2 | EEEKELTEEELKTRYVG [RPN11] | 3.68 ± 0.2
3 | EEGEYKNAANTEGHKGH [ISW2] | 3.31 ± 0.062
4 | EEIEPKLEKLRNEKRMF [SMC2] | 2.89 ± 0.11
5 | EEIFFKSVRILKNKAEY [RPC40] | 3.2 ± 0.074
6 | EEIKQSARNYDKFKLNE [SMC1] | 3.25 ± 0.066
7 | EEIKTVDPASAPNHSPE [RRP6] | 3.01 ± 0.096
8 | EEKEEEAAEESDDDMGF [RPP1B] | 3.19 ± 0.06
9 | EEKLKANKEKKKAEKAA [RPL24A] | 3.23 ± 0.07
10 | EEKPDVTYSDVGGCKDQ [RPT1] | 3.48 ± 0.16
11 | EELRDLYQTYHVLVGDL [FAS1] | 2.26 ± 0.071
12 | EENEDNDGNNRTNNVPM [NUT1] | 3.11 ± 0.12
13 | EERERKDQYVPEVSALD [RPS17A] | 2.91 ± 0.082
14 | EESIKIYPLIKPGSTVM [UBP6] | 2.94 ± 0.18
15 | EEYKQLVKDRKFLREVF [RPO21] | 3.32 ± 0.078
16 | EFANFELKDICSFAVTK [YML103C/NUP188] | 2.07 ± 0.072
17 | EFDSDDDDISDDEEDEI [RPN4] | 3.47 ± 0.1
18 | EFEKKLQETLNKSTSSE [YIL149C/MLP2] | 2.95 ± 0.12
19 | EFIAHRLGLIPLQSMDI [RPB3] | 2.69 ± 0.13
20 | EFLINEGTPINNVYFAA [RPN14] | 2.33 ± 0.07
21 | EFSPRLHNIWSNGLLSI [YML103C/NUP188] | 1.85 ± 0.061
22 | EFVDDYTVNVVDVFAMP [RPN11] | 3.08 ± 0.19
23 | EGAARGTSVYLVDKRID [DIS3] | 3.38 ± 0.17
24 | EGGKNQAELLQLAVKII [YJL039C/NUP192] | 2.87 ± 0.12
25 | EGIEIYDRKKLPRKEVD [RPC11] | 3.14 ± 0.14
26 | EGLTYKYPARRIHTNDN [SSN3] | 2.78 ± 0.072

Row | Sequence | protein stability index
27 | EGNAQLVAIFGGQGNTD [FAS1] | 1.45 ± 0.067
28 | EGNQIIVFVHSRKETSR [BRR2] | 2.01 ± 0.055
29 | EGRSFTKAIEDAKKEMK [YLR335W/NUP2] | 2.87 ± 0.066
30 | EGVEYLREYLNLPEHIV [RPS10A] | 3.31 ± 0.081
31 | EGWPKFQDTLYKKIPLL [QCR10] | 2.8 ± 0.087
32 | EHFSDEETYEEKPQFKD [RPO26] | 3.51 ± 0.1
33 | EHKQLVAEIVQNVISLG [RPC82] | 2.2 ± 0.067
34 | EHRIRVFFDKRIGQEVD [RPS6A] | 3.25 ± 0.14
35 | EHTDVIDELIDTKLRLE [YIL149C/MLP2] | 2.87 ± 0.052
36 | EHWKVRNFKKANLVNKE [BRN1] | 2.06 ± 0.1
37 | EIAQANSRNAIRKLVKN [RPL19A] | 2.9 ± 0.15
38 | EIDDTEAEVTAEVNGGD [BRR2] | 3.13 ± 0.088
39 | EIEDGQDGGVTPYSNES [RPO21] | 3.49 ± 0.1
40 | EIEPILMEIHNILKVDS [RGR1] | 1.74 ± 0.098
41 | EIGLLGGRYVYPVHEAH [SNU114] | 1.85 ± 0.064
42 | EIGLLPEDALVNDFSDI [SMC3] | 3.44 ± 0.089
43 | EIINNKTSSQTSLSSKD [YMR153W/NUP53] | 2.33 ± 0.067
44 | EIKVGKQRFQGCNNLIK [ARP9] | 2.76 ± 0.16
45 | EILGINLANEQPVLEKP [SIR4] | 3 ± 0.068
46 | EILILINDPTNKEYTLV [SIN4] | 1.77 ± 0.072
47 | EIMEERNVEQKLNELDE [NNF1] | 3.11 ± 0.08
48 | EIPTQIYRTTRQDGSYT [ARP9] | 2.94 ± 0.081
49 | EISASESKFILEALRQN [RRP45] | 2.94 ± 0.096
50 | EISRLKTSLSIKVENLN [SMC2] | 2.76 ± 0.077
51 | EKENRFEIVDREKNSLE [SMC4] | 2.63 ± 0.09
52 | EKFSEKMLKIWTMAFRT [ECM29] | 2 ± 0.11

Row | Sequence | protein stability index
53 | EKGKKVTGFKDEVLETV [RPS1A] | 1.32 ± 0.13
54 | EKIDGMDVDSVKTTLVS [RPC82] | 2.54 ± 0.11
55 | EKIWFAISKENLCGDIS [SIR3] | 2.39 ± 0.064
56 | EKKLMQDNKQLYQIWIV [YDL116W/NUP84] | 2.06 ± 0.075
57 | EKKPAAKKTSTSVDGKK [HTB2] | 2.38 ± 0.2
58 | EKLAVSALEQAIIYQRG [YGL100W/SEH1] | 2.04 ± 0.097
59 | EKLLETNVSKQNDFLFS [ECM29] | 2.64 ± 0.1
60 | EKLLQQDREITNWARTT [MED8] | 2.37 ± 0.09
61 | EKLYIFYKLNMPDEFNT [SRP72] | 2.13 ± 0.043
62 | EKNEKEREIKRRKFDPS [UBP6] | 3.3 ± 0.05
63 | EKPFNENRFQDTLLLLP [POP4] | 1.52 ± 0.11
64 | EKSGISKMSDESFAELM [RPC17] | 3.26 ± 0.14
65 | EKSLLPKIETNVYVGMT [ISW2] | 2.92 ± 0.13
66 | EKSRISERDSKDRYING [YMR129W/POM152] | 3.01 ± 0.09
67 | EKVILVQEQLSKNRIIV [RET1] | 1.63 ± 0.087
68 | EKVTIAPLVLLSALDHY [RPN8] | 1.62 ± 0.033
69 | ELDAQTLPGDDELDQEI [RPT5] | 3.32 ± 0.097
70 | ELEEQESESERKYDLFQ [SMC2] | 3.32 ± 0.16
71 | ELHKKLVEAAKLLKIPK [YDL116W/NUP84] | 2.57 ± 0.13
72 | ELIKNYITARIMAKRPF [FAS1] | 2.93 ± 0.13
73 | ELLDFLTSNLSNYSRTM [YJL039C/NUP192] | 2.35 ± 0.076
74 | ELLEHIETIGHLITKEE [RPN5] | 2.91 ± 0.076
75 | ELNDIDTKIDQVNGNIR [SMC3] | 3.34 ± 0.22
76 | ELNSSEDILEDMNSNLQ [SMC1] | 3.38 ± 0.072
77 | ELNYFVGCKNLERLTLV [GRR1] | 2.92 ± 0.11
78 | ELPLEDFKAKYCDSMGR [RPB5] | 3.31 ± 0.13

Row | Sequence | protein stability index
79 | ELQIFKTANSSSDAFEK [YIL149C/MLP2] | 2.44 ± 0.049
80 | ELQKLVHDLNKYKSNTN [SMC2] | 3.15 ± 0.072
81 | ELRRPGVDNLRRMGILK [RPO31] | 3.17 ± 0.079
82 | ELRYQSHILNSHSLALN [DSN1] | 2.29 ± 0.066
83 | ELSNELSRLSTASKIIV [MED1] | 2.68 ± 0.087
84 | ELTKSLSIAFENGDYAA [RPN12] | 3.17 ± 0.16
85 | ELVFSKGVYLILSEILC [YML103C/NUP188] | 1.93 ± 0.049
86 | ELVVFLPALCKKMGVPY [RPL8A] | 2.92 ± 0.098
87 | EMGKLRERDITSLFHKF [RRI2] | 1.8 ± 0.071
88 | EMGKTDKSTKTAEAPTL [YOR098C/NUP1] | 3.1 ± 0.16
89 | EMTLPTSPLYMDPGAPL [SSN2] | 3.07 ± 0.11
90 | ENANADLENKFNRLKKQ [YIL149C/MLP2] | 3.06 ± 0.067
91 | ENDTNMNETLNLKVELK [SMC4] | 3.43 ± 0.2
92 | ENEEFITFLQTLYIGNT [ECM29] | 2.06 ± 0.055
93 | ENIQEGTSLTIQHIAAA [CDC53] | 2.52 ± 0.091
94 | ENLADLDYQIGNSESKV [LIN1] | 3.23 ± 0.099
95 | ENLFSKEEVCQGMEGTV [YMR129W/POM152] | 2.5 ± 0.073
96 | ENNYKKRLLGTAFKSSP [RPS23A] | 2.32 ± 0.047
97 | ENRKKDESDSENDIEIK [YLR335W/NUP2] | 2.68 ± 0.1
98 | ENSFYKKEASKTKWDRK [POP1] | 2.25 ± 0.063
99 | ENSGKEMDEKSYEKNED [LIN1] | 3.64 ± 0.28
100 | ENSTSNSKPEKSSDSND [YLR335W/NUP2] | 3.24 ± 0.14
101 | ENTVGLISGAGANPRVL [RPN10] | 1.72 ± 0.052
102 | ENYDAKIELEKKEKWAR [YIL149C/MLP2] | 3.2 ± 0.08

From the supplement of paper PMC9732359
